How the values were obtained:
[1] = molecular target: T1, wild-type human Nectin-4 protein (Nectin4-His-BirA) (Homo sapiens, UniProt Q96NY8); assay: Epitope mapping by competition for binding to Nectin-4 (SPR/OCTET); conditions: listed as antibody = 1st mAb injected; 10 μg/mL each
T1 construct: human Nectin4-His-BirA protein diluted to 5 μg/mL in Kinetic buffer 10× were captured onto the biosensors; BirA (biotinylation acceptor tag) (C)
T1 sequence (Q96NY8 with tags, fused parts or gaps): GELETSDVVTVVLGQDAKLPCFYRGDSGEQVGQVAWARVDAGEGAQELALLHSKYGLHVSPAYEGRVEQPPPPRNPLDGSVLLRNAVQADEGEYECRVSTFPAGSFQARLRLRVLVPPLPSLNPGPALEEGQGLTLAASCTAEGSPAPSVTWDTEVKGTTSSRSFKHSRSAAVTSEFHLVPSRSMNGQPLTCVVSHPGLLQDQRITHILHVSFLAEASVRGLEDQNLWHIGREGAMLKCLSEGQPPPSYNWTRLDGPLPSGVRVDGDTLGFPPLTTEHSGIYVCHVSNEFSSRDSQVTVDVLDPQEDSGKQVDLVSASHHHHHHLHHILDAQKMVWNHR
Description: Briefly, human Nectin4-His-BirA protein diluted to 5 μg/mL in Kinetic buffer 10× were captured onto the biosensors. The first antibody was injected diluted to 10 μg/mL in Kinetic buffer 10×, followed by a second injection of the first antibody diluted to 10 μg/mL in Kinetic buffer 10× in order to saturate the signal. The second antibody was injected diluted to 10 μg/mL in Kinetic buffer 10×.
Squares with “O” indicate substantial or direct competition between the 1st and 2nd antibody (1st antibody prevents/causes loss of binding of 2nd antibody), squares with “X” indicate potential partial competition (1st antibody causes a potential reduction but not loss of binding of 2nd antibody), squares with “N/A” indicate no competition.

[2] = molecular target: T2, human Nectin-4 expressed on cells (human, UniProt Q96NY8 32-510); assay: flow cytometry on SUM190 cells, MedFI at saturation
T2 construct: On SUM190, SUM185, MDA-MB-468 cells (endogenous) or transfected cells; 31-residue signal peptide left out; also called huN4; wild-type human Nectin-4
T2 sequence: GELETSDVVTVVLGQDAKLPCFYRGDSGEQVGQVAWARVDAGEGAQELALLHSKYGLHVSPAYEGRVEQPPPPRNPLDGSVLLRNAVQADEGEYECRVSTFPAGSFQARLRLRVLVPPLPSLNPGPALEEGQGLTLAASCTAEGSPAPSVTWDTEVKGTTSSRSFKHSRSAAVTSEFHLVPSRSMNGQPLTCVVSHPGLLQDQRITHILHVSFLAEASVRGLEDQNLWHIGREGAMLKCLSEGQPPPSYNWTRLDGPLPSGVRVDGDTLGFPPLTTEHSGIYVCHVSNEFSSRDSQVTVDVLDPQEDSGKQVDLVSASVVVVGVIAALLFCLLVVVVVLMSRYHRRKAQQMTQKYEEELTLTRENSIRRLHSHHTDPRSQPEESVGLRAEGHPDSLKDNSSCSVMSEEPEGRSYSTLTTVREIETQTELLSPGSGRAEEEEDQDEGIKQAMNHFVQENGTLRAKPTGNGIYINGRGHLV
Description: The humanized antibodies in Table 3 of Example 3 and in Table 6 of Example 5 were cloned, produced and purified, then tested for binding to Nectin-4 expressing cells by flow cytometry. Binding of humanized variants in human IgG1 format was determined on the SUM190 cell line expressing high levels of Nectin-4.

[3] = molecular target: T2, human Nectin-4 expressed on cells; assay: cell-based or functional assay
[4] = molecular target: T2, human Nectin-4 expressed on cells; assay: cell-based or functional assay; remark: listed apart in the source
[5] = molecular target: T3, rat Nectin-4 protein expressed on CHO cells (rat, UniProt Q8R007 31-508 (mouse entry)); assay: flow cytometry on CHO cells expressing rat Nectin-4, Median MFI (PE)
T3 construct: no cleavage site is stated; also called Rat Nectin-4 V5
T3 chain: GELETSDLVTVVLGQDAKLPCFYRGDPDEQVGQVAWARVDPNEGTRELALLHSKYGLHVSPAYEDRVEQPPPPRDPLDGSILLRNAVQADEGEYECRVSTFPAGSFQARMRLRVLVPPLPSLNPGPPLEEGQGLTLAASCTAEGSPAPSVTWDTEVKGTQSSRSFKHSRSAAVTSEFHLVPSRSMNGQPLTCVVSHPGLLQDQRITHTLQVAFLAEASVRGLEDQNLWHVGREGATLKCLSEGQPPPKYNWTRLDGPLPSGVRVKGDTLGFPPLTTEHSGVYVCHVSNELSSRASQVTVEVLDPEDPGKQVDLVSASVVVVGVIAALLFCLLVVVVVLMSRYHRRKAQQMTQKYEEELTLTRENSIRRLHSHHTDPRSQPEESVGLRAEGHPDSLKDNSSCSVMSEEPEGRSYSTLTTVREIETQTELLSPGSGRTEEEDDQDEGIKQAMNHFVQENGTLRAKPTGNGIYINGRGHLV
Description: (§1) Anti-Nectin-4 antibodies were tested by flow cytometry for binding to different CHO cell lines made to express respectively the mouse, cynomolgus and rat Nectin-4 protein (including an N-terminal V5 tag not shown in the sequences below).

[6] = system: rat Nectin-4 protein expressed on CHO cells; assay: Species cross-reactivity by flow cytometry on CHO cell lines; format: binding; conditions: FIG. 6A
rat Nectin-4 protein expressed on CHO cells, sequence (as listed by the source): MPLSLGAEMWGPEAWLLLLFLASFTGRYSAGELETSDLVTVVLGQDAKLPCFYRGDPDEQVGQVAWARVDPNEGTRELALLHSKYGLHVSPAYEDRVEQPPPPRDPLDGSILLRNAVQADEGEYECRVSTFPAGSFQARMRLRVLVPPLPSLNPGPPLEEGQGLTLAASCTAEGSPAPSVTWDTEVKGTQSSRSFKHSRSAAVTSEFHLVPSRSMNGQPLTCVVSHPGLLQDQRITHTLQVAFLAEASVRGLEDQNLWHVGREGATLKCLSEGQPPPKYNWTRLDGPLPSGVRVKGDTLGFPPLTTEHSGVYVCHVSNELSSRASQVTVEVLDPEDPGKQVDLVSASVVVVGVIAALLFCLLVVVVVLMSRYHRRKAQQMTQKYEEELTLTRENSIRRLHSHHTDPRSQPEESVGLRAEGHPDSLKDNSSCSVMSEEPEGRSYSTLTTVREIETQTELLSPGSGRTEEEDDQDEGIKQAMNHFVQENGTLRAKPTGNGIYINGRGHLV
Description: as §1
(§2) The mature amino acid sequence of the proteins expressed by the cells were as follows: […]

[7] = system: cynomolgus Nectin-4 protein expressed on CHO cells; assay: as above; format: binding; conditions: FIG. 6B
cynomolgus Nectin-4 protein expressed on CHO cells, sequence (as listed by the source): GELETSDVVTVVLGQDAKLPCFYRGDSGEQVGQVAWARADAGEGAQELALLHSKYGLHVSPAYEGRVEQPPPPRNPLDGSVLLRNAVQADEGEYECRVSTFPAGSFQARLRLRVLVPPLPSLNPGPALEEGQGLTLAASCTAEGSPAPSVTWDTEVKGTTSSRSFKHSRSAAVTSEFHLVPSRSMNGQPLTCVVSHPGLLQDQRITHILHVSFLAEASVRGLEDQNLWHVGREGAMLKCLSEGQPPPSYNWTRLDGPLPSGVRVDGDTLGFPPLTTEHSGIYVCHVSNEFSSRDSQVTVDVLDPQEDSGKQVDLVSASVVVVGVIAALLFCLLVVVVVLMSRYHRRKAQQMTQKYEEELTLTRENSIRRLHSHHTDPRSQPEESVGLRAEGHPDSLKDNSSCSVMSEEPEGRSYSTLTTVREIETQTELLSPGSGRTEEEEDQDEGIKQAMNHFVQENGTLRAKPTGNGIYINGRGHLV
Description: as §1, §2

[8] = molecular target: T4, mouse Nectin-4 protein expressed on CHO cells (Mus musculus, UniProt Q8R007); assay: as above; format: binding
T4 construct: V5 (N); expressed in transfected cells; host or cells: CHO
T4 sequence (Q8R007 32-508): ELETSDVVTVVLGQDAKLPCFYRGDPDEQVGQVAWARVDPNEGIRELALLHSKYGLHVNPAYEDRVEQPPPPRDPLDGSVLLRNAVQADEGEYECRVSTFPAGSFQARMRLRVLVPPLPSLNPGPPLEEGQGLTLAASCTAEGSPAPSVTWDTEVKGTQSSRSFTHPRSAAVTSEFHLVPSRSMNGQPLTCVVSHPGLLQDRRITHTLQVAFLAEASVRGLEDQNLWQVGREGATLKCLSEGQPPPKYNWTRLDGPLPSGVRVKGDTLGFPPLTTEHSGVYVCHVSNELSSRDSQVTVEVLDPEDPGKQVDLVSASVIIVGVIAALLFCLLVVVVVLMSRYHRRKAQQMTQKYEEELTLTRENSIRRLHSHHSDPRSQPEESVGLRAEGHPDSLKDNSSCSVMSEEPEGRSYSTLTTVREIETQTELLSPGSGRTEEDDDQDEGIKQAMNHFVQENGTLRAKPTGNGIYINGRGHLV
Description: as §1, §2

B1: N41 (antibody, V domains shown)
VH: QVQLKQSGPGLVQPSQSLSITCTVSGFSLTNYGVHWVRQSPGKGLEWLGVIWSGGSTDYNAAFISRLSISKDTSKSQVFFKMNSLQADDTAIYYCARELIHAMDNWGQGTSVTVSS
VL: DIQMTQSPASLSVSVGETVTITCRASENIYSNLAWYQQKQGNSPQLLVFAATNLADGVPSRFSGSGSGTQYSLKINSLQSEDFGTYYCQHFWGTPTFGGGTKLEIK
competition, 2nd mab injected: 14A5 [1]: ◯
competition, 2nd mab injected: MABT64 [1]: ◯
competition, 2nd mab injected: N41 [1]: ◯

B2: chimeric parental 5E7 antibody (antibody, V domains shown)
VH: QVQLQQPGAELVKPGASVKLSCKASGYIFTSYWMHWVKQRPGQGLEWIGEIDPSDSYTNYNQKFKGKATLTLDKSSSTTYMQLSSLTSEDSAVYYCVRGYGNYGDYWGQGTTLTVSS
VL: DVVMTQAAFSNPVTLGTSASISCRSSKSLLHSNGITYLYWYLQKPGQSPQLLIYQMSNLASGVPDRFSSSGSGTDFTLRISRVEAEDVGVYYCAQNLELPWTFGGGTKLEIKR
notes: Chimeric antibody, murine variable domains with human constant regions; also called ch5E7; CHG1-M-1N4-5E7
Max MedFi [2]: 25200 MedFI
internalization efficiency on MDA-MB-468, normalized to chimeric parental antibody (Fab-ZAP, CTG), first column [3]: 100 % of chimeric parental
internalization efficiency on MDA-MB-468, normalized to chimeric parental antibody (Fab-ZAP, CTG), second column [3]: 100 % of chimeric parental
internalization efficiency on SUM190, normalized to chimeric parental antibody (Fab-ZAP, CTG), experiment 1 [4]: 100 % of chimeric parental
internalization efficiency on SUM190, normalized to chimeric parental antibody (Fab-ZAP, CTG), experiment 2 [4]: 100 % of chimeric parental
EC50 (read off the curve) [5]: ~0.1 µg/mL

B3: 5E7 (antibody, V domains shown)
VH: QVQLQQPGAELVKPGASVKLSCKASGYIFTSYWMHWVKQRPGQGLEWIGEIDPSDSYTNYNQKFKGKATLTLDKSSSTTYMQLSSLTSEDSAVYYCVRGYGNYGDYWGQGTTLTVSSASTKGP
VL: DVVMTQAAFSNPVTLGTSASISCRSSKSLLHSNGITYLYWYLQKPGQSPQLLIYQMSNLASGVPDRFSSSGSGTDFTLRISRVEAEDVGVYYCAQNLELPWTFGGGTKLEIKRTVAAP
competition, 2nd mab injected: 5E7 [1]: ◯
binding to rat Nectin 4 protein [6]: bound
binding to cynomolgus Nectin 4 protein [7]: bound
binding to mouse Nectin 4 protein [8]: lack binding
